Experimental findings from US20110046075A1 (published 2011) are described below.

What is called koff is the rate constant with which the complex falls apart. The kon is the rate constant with which the complex forms. As usually defined, the Kd is a measure of binding affinity in units of concentration.

Assay [1] deals with T1, Recombinant C3dg (E. coli, pET30 vector with S-tag) (human, UniProt P01024 955-1303).
T1 construct: domain: C3dg; not shown: S-tag from the pET30 vector
Briefly: SPR (Biacore 2000), Efb-C immobilized, C3dg as analyte, 1:1 Langmuir model. A general note: In SPR one partner is held on a chip, and binding of the other changes the refractive index at the surface.

Assay [2] has as its target T2, Fibrinogen (Fg) from human serum (human, UniProt P02671 20-644; P02675 31-491; P02679 27-437).
T2 construct: The three-chain make-up is from general knowledge; also called Fg species
T2 sequence 1: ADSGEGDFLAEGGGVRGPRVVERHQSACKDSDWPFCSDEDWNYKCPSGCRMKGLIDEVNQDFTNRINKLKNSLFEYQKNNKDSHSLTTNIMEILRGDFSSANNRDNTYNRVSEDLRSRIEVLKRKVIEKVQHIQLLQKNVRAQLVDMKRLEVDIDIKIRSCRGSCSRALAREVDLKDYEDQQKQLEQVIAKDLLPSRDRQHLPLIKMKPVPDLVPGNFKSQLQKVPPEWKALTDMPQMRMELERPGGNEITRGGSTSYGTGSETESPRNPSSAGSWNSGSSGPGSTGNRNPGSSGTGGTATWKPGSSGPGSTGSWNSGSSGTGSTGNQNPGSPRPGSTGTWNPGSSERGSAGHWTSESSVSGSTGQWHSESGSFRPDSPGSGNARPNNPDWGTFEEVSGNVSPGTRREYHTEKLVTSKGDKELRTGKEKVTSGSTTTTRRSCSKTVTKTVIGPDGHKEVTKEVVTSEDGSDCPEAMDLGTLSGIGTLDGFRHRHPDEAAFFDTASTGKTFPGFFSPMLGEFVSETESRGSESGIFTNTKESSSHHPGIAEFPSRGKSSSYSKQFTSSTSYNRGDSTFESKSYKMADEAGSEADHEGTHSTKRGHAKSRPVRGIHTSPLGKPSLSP
T2 sequence 2: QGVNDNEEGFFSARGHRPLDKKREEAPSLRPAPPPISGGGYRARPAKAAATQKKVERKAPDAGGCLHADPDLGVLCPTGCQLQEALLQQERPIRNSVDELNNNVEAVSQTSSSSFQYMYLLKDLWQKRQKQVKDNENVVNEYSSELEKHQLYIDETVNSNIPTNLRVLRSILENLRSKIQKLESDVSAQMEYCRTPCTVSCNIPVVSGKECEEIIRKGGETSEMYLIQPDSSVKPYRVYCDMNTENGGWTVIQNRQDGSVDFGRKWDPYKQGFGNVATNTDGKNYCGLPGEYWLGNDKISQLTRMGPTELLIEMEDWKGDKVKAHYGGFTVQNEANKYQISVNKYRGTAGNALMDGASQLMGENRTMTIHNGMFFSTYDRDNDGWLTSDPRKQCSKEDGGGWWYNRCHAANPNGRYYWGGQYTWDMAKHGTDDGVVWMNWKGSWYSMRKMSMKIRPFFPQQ
T2 sequence 3: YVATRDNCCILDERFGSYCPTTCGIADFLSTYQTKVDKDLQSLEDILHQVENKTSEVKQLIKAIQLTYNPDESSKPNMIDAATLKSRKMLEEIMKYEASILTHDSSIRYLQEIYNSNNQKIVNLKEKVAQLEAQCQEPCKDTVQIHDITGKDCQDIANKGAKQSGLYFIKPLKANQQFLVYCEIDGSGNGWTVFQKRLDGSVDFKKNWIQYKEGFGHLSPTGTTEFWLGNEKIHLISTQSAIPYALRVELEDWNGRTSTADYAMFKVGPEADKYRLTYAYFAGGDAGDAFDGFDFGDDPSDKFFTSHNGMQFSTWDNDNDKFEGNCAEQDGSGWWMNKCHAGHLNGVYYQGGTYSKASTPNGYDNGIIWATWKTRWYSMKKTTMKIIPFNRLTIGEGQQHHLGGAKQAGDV
Briefly: pull-down from human serum on derivatized sepharose, SDS-PAGE and LC-MS/MS.

Assay [3] deals with T1, Recombinant C3dg (E. coli, pET30 vector …). The experiment in a line: SPR (Biacore 2000), Efb-C immobilized, C3dg as analyte, 1:1 Langmuir model; Kd=koff/kon.
Assay [4] deals with T3, Native complement component C3, purified from human plasma (human, UniProt P01024 23-1663, intact thioester (native form)). Briefly: cell-based or functional assay.
For assay [5], the target named is T4, C3b (human, UniProt P01024 23-667; P01024 749-1663, limits assumed).
T4 construct: domain: C3b; Prepared according to established protocols
Briefly: SPR (Biacore 2000), Efb-C immobilized, C3b as analyte, 1:1 Langmuir model; Kd=koff/kon.

In assay [6] the target is T4, C3b. Briefly: SPR (Biacore 2000), Efb-C immobilized, C3b as analyte, 1:1 Langmuir model.
Procedure: (§1) Surface Plasmon Resonance of Efb Binding to Components of the Complement System. All SPR experiments were performed on a Biacore X (ranking) or Biacore 2000 (kinetic profiling) biosensor at 25° C. using 10 mM PBS-T (10 mM sodium phosphate, pH 7.4, 150 mM NaCl, 0.005% Tween-20) as running buffer. […] A separate flow cell was only activated and deactivated, and served as reference surface. 200 nM solutions of the C3 fragments were injected for 3 min at a flow rate of 20 μl/min with a dissociation phase of 3 min. The Efb-C surface was regenerated with two consecutive 30 s pulses of 0.1% SDS and re-equilibrated in running buffer for 10 min. For the kinetic SPR studies, Efb-C was immobilized at lower density (200 RU) and the flow rate was kept at 30 μl/ml in order to avoid mass transport effects. C3 fragments were screened as threefold dilution series (67-0.09 nM; 200-0.09 nM for C3b) in running buffer with injection and dissociation phases of 5 and 10 min, respectively. In order to ensure full reconstitution of the surface after regeneration, the equilibration phase was increased to 30 min. Three buffer blanks were included in each analysis and their average signals were subtracted from the processed sample responses (double referencing). […] The equilibrium dissociation constant (Kd) was calculated from the kinetic parameters as Kd=koff/kₒₙ. […]
Assay [7] addresses T5, Hydrolyzed C3 (C3(H2O)) (human, UniProt P01024 23-1663, thioester hydrolyzed).
T5 construct: mature; Prepared according to established protocols
The experiment in a line: SPR (Biacore 2000), Efb-C immobilized, C3(H2O) as analyte, 1:1 Langmuir model.
Procedure: as §1

Assay [8] has as its target T4, C3b. Briefly: SPR kinetics, Efb-C immobilized.
For assay [9], the target named is T5, Hydrolyzed C3 (C3(H2O)). The experiment in a line: SPR kinetics, Efb-C immobilized.
In assay [10] the target is T3, Native complement component C3, …. The experiment in a line: SPR (Biacore 2000), Efb-C immobilized, native C3 as analyte, surface heterogeneity model, primary site; Kd=koff/kon.
Assay [11] concerns the target T5, Hydrolyzed C3 (C3(H2O)). Briefly: SPR (Biacore 2000), Efb-C immobilized, C3(H2O) as analyte, 1:1 Langmuir model; Kd=koff/kon.
The target in a further assay is T6, C3c (human, UniProt P01024 23-667; P01024 749-954; P01024 1321-1663).
T6 construct: domain: C3c; Prepared according to established protocols; also called C3c fragment
The experiment in a line: SPR, Efb-C immobilized, C3c injected, response divided by MW.

Assay [12] concerns the target T3, Native complement component C3, …. Briefly: SPR (Biacore 2000), Efb-C immobilized, native C3 as analyte, surface heterogeneity model, primary site (~90% of the total binding).

Some results are limits rather than exact numbers.

T4 sequence (P01024 23-667 limits assumed, chain 1 of 2): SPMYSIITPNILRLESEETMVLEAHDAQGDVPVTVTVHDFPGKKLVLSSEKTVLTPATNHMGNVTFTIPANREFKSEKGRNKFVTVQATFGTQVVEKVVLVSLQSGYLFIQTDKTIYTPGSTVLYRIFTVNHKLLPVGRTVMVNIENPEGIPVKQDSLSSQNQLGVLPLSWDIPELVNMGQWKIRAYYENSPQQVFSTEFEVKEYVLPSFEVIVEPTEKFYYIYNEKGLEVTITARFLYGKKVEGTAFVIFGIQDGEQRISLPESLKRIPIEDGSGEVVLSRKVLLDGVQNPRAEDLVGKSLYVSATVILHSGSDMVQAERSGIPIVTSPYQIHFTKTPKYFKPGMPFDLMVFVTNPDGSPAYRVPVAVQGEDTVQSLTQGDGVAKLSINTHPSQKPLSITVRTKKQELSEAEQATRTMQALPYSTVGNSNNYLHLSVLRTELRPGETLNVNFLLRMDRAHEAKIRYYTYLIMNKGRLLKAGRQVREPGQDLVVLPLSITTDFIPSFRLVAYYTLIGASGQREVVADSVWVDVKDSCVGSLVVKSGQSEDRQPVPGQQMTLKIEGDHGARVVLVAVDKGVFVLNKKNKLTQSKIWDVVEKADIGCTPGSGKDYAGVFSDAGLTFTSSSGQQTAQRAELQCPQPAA
T4 sequence (P01024 749-1663 limits assumed, chain 2 of 2): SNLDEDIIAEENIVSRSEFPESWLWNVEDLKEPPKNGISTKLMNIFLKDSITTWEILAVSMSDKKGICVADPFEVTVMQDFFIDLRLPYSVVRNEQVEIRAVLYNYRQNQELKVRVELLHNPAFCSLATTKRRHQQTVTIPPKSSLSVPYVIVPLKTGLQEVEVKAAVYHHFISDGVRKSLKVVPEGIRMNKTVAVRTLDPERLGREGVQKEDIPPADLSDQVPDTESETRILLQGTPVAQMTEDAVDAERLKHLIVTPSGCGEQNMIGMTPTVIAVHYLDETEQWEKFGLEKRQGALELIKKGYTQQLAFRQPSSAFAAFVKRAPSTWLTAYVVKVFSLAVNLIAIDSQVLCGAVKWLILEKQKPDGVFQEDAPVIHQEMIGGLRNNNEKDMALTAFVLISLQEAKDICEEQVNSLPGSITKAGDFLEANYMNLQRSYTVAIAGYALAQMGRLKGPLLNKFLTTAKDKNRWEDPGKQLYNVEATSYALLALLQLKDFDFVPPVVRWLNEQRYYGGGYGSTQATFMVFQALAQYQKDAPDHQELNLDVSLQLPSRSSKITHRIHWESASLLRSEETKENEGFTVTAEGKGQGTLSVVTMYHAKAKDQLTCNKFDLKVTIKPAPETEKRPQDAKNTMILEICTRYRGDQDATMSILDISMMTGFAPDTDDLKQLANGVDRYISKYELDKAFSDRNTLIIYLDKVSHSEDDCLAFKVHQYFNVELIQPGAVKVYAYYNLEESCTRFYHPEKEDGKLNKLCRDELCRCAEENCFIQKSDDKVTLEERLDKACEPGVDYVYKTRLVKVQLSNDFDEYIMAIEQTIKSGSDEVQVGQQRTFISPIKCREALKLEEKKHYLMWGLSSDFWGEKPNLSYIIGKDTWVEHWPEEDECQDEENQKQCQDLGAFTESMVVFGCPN
T3 sequence (P01024 23-1663): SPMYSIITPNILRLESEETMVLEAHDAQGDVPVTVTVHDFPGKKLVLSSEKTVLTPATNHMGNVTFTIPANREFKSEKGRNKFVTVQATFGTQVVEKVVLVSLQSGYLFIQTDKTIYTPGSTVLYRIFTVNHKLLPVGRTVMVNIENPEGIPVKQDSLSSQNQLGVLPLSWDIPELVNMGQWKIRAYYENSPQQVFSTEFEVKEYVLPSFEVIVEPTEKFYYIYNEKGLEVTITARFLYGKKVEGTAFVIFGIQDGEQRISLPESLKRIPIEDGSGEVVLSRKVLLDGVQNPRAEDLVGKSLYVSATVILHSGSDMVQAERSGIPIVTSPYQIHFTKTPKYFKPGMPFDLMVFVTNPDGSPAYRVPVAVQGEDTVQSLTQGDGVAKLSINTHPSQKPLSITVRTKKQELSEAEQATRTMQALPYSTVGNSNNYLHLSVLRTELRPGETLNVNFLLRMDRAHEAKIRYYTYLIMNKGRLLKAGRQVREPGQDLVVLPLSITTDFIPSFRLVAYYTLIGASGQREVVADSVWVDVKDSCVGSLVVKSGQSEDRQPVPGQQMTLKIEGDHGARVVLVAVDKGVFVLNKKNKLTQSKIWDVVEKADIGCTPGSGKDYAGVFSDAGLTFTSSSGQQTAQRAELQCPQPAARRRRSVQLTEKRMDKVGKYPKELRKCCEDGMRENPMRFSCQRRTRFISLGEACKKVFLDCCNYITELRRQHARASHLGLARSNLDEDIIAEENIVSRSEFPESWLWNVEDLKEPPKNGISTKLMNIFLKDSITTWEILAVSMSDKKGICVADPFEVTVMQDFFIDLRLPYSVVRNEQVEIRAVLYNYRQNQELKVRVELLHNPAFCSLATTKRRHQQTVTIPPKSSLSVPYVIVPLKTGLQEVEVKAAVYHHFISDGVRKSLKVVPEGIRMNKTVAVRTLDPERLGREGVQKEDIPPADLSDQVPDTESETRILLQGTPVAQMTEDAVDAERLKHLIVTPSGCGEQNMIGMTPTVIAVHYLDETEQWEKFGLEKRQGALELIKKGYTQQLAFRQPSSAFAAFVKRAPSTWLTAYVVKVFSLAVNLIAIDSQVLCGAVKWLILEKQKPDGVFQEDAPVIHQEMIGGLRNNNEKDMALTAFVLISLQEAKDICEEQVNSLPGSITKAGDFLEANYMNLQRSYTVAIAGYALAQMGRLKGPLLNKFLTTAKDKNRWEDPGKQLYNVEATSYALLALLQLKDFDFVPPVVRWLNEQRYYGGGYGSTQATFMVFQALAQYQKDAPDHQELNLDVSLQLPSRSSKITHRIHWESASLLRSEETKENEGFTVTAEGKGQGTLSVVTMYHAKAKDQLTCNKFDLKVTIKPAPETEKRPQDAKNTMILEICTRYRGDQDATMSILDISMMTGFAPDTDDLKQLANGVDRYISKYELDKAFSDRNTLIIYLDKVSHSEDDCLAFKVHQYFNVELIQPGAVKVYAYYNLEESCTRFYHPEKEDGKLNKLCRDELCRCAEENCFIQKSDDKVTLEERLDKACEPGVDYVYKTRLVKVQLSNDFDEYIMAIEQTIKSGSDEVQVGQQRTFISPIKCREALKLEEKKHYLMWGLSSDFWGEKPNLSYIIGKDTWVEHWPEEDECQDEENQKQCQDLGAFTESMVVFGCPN
T5 sequence (P01024 23-1663): as above
T1 sequence (P01024 955-1303): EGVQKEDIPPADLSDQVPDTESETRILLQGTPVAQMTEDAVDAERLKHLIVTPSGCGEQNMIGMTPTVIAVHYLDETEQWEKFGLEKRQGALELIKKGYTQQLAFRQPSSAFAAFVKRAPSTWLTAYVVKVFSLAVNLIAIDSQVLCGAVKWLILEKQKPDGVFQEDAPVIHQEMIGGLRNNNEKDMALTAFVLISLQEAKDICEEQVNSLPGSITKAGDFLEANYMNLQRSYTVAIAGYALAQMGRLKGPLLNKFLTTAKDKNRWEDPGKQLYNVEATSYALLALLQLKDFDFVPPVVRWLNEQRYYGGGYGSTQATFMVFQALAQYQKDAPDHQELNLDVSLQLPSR
T6 sequence (P01024 23-667 limits assumed, chain 1 of 3): as the sequence (P01024 23-667 limits assumed, chain 1 of 2) above
T6 sequence (P01024 749-954 limits assumed, chain 2 of 3): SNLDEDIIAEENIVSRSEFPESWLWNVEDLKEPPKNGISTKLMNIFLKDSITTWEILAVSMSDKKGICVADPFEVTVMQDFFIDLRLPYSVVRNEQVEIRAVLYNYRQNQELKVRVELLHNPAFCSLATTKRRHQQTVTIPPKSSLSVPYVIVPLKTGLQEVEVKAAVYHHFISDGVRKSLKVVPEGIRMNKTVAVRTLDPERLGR
T6 sequence (P01024 1321-1663 limits assumed, chain 3 of 3): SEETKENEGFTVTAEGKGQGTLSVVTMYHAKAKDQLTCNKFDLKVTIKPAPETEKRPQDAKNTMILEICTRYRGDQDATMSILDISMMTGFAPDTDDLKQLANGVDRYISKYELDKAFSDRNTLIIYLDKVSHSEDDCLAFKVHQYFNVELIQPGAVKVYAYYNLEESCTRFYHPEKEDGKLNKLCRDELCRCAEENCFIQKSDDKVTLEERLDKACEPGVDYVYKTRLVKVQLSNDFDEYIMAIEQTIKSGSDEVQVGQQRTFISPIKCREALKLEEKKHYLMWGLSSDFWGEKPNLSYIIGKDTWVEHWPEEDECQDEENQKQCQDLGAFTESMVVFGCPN

B1: Efb-C, C-terminal C3-binding domain of Efb from S. aureus strain Mu50 (other)
chain: FNKPAAKTDATIKKEQKLIQAQNLVREFEKTHTVSAHRKAQKAVNLVSFEYKVKKMVLQERIDNVLKQGLVR
notes: Monomer in solution; also called wild-type Efb-C
For the molecule B1, the koff in assay [1] was found to be 0.000218 s⁻¹; with C3b [6], 0.000209 s⁻¹; with Hydrolyzed C3 (C3(H2O)) [7], 0.000169 s⁻¹; in [12], 9.9e-05 s⁻¹. The kon is 284000 M⁻¹ s⁻¹ in assay [1], 23900 M⁻¹ s⁻¹ with C3b [6], 88900 M⁻¹ s⁻¹ with Hydrolyzed C3 (C3(H2O)) [7] and 36000 M⁻¹ s⁻¹ in assay [12]. Moreover, the binding result in [2] is reported as “no binding (tested: 1:100 dilution of human serum)”; with C3c, “no binding (tested: 200 nM)”. Besides, the dissociation constant Kd in assay [3] was found to be 0.8 nM; with C3b [5], 8.8 nM; in [10] it was 2.8 nM; with Hydrolyzed C3 (C3(H2O)) [11], 1.9 nM. In addition, the “IC50, inhibition of the alternative pathway of complement activation (ELISA of C3b deposition, human serum)” value in [4] is roughly 410 nM. For the same molecule, in the assay with C3b [8], the “fold decrease in affinity compared to native C3 and C3(H2O)” value is roughly 3 fold. Besides, in the assay with C3b [8], the “fold difference in affinity to C3dg” value was roughly 10 fold. For the same molecule, in the assay with Hydrolyzed C3 (C3(H2O)) [9], the “dissociation rate relative to that of native C3” value is greater than 70 % greater.

B2: SAV1155/Ehp (Efb Homologous Protein), recombinant mature form, S. aureus strain Mu50 (other)
chain: QTKNVEAAKKYDQYQTNFKKQVNKKVVDAQKAVNLFKRTRTVATHRKAQRAVNLIHFQHSYEKKKLQRQIDLVLKYNTLK
notes: A recombinant form corresponding to the predicted mature protein
With B2, the binding result in assay [2] was “no binding (tested: 1:100 dilution of human serum)”. In [4], the “IC50, inhibition of classical activation of the complement pathway (ELISA detecting fixed C3b to Ag-Ab complex)” value was found to be 590 nM; the “classical pathway inhibition relative to Efb, on a molar basis” value is roughly 2 fold; the “classical pathway inhibition relative to Efb-C, on a molar basis” value is roughly 50 fold.

B3: Extracellular fibrinogen-binding protein (Efb), recombinant full-length, S. aureus strain Mu50 (other)
chain: ASEGYGPREKKPVSINHNIVEYNDGTFKYQSRPKFNSTPKYIKFKHDYNILEFNDGTFEYGARPQFNKPAAKTDATIKKEQKLIQAQNLVREFEKTHTVSAHRKAQKAVNLVSFEYKVKKMVLQERIDNVLKQGLVR
Regarding B3, in assay [4], the “IC50, inhibition of the alternative pathway of complement activation (ELISA of C3b deposition, human serum)” value was roughly 560 nM and the “molar excess over C3 needed to reach an IC50 concentration, classical pathway” value was found to be 50 fold molar excess over C3.
